# How the values were obtained:
# [1] = system: peptides from the phage display library which became phosphorylated by Enzyme I
# [2] = target: enzyme I (phosphoenolpyruvate-protein-phosphatase, EC 2.7.3.9) of the bacterial phosphotransferase system (E. coli) (UniProt P08839); test: cell-based or functional assay
Substance,"phosphorylation of phage displayed peptides by enzyme I with [32P]phosphoenolpyruvate, fold over the average [1]",rate of phosphorylation by enzyme I (pyruvate formation coupled to lactate dehydrogenase) [1],uncoupling P1/peptide/h [2]
"enzyme I (phosphoenolpyruvate-protein-phosphatase, EC 2.7.3.9) of the bacterial phosphotransferase system",phosphorylated 25 to 30 fold over the average,The inhibitory peptides are phosphorylated by enzyme I at a much slower rate than Hpr.,–
HPr protein (from UniProt P0AA04 1-85),–,–,2.7 P1/peptide/h
